Experimental data from PMC4337903, “Simian Virus Large T Antigen Interacts with the N-Terminal Domain of the 70 kD Subunit of Replication Protein A in the Same Mode as Multiple DNA Damage Response Factors” (PLoS ONE, 2015).

Key:
[1] = biological target: RPA70N (aa 1-120 of RPA70) used for ITC and NMR (UniProt P27694); test: ITC; 10 μl injections of 336 μM Tag(84-130) into 60 μM RPA70N in the cell; 25 mM Tris-Cl pH 7.5, 100 mM NaCl; single site model; average of three trials
[2] = biological target: T1, Simian virus 40 Large T-antigen (Tag), full length (Simian virus 40 (SV40), UniProt P03070 1-708); test: pull-down; GST-RPA70N (WT or R41/43E) or GST on glutathione beads, purified full-length Tag as prey; 4°C, 30 mM HEPES KOH pH 7.8, 10 mM KCl, 7 mM MgCl2, 10 μM ZnCl2, 2% non-fat dry milk; washes with 75 mM KCl; blot with pAb101 and anti-GST; also without antibody or after pre-incubation of Tag with control non-immune IgG; conditions: both partners purified
T1 construct: SV40 Large T antigen, full length; The methods tell the removal of GST from full-length Tag for 'ITC and NMR studies'; for the pull-down the legend says only 'purified as described in Materials and Methods'; also called Large Tumor Antigen; full-length Tag; source: Rosetta 2 cells, GST-tagged, purified (glutathione agarose), treated with H3C PreScission protease

Tag(84-130), GST removed (domain or fragment)
Kd [1]: 1.28 µM

B1: GST-RPA70N (N-terminal domain of the 70 kDa subunit of Replication Protein A, residues 1-120) (domain or fragment, UniProt P27694 1-120, looked up)
chain: MVGQLSEGAIAAIMQKGDTNIKPILQVINIRPITTGNSPPRYRLLMSDGLNTLSSFMLATQLNPLVEEEQLSSNCVCQIHRFIVNTLKDGRRVVILMELEVLKSAEAVGVKIGNPVPYNE
notes: also called GST-RPA70N WT; source: Rosetta 2 cells, purified (glutathione agarose)
binding result [2]: binds
